Legend:
[1] = target: DNA-dependent protein kinase catalytic subunit (DNA-PKcs) (human) (UniProt P78527); test: cell-based or functional assay
[2] = target: DNA-dependent protein kinase catalytic subunit (DNA-PKcs) (human) (UniProt P78527); test: SPR (Biacore X), scFv amine coupled to a CM-5 chip, purified DNA-PKcs as analyte, 25 C

Chain of UniProt P78527 (P78527 whole entry): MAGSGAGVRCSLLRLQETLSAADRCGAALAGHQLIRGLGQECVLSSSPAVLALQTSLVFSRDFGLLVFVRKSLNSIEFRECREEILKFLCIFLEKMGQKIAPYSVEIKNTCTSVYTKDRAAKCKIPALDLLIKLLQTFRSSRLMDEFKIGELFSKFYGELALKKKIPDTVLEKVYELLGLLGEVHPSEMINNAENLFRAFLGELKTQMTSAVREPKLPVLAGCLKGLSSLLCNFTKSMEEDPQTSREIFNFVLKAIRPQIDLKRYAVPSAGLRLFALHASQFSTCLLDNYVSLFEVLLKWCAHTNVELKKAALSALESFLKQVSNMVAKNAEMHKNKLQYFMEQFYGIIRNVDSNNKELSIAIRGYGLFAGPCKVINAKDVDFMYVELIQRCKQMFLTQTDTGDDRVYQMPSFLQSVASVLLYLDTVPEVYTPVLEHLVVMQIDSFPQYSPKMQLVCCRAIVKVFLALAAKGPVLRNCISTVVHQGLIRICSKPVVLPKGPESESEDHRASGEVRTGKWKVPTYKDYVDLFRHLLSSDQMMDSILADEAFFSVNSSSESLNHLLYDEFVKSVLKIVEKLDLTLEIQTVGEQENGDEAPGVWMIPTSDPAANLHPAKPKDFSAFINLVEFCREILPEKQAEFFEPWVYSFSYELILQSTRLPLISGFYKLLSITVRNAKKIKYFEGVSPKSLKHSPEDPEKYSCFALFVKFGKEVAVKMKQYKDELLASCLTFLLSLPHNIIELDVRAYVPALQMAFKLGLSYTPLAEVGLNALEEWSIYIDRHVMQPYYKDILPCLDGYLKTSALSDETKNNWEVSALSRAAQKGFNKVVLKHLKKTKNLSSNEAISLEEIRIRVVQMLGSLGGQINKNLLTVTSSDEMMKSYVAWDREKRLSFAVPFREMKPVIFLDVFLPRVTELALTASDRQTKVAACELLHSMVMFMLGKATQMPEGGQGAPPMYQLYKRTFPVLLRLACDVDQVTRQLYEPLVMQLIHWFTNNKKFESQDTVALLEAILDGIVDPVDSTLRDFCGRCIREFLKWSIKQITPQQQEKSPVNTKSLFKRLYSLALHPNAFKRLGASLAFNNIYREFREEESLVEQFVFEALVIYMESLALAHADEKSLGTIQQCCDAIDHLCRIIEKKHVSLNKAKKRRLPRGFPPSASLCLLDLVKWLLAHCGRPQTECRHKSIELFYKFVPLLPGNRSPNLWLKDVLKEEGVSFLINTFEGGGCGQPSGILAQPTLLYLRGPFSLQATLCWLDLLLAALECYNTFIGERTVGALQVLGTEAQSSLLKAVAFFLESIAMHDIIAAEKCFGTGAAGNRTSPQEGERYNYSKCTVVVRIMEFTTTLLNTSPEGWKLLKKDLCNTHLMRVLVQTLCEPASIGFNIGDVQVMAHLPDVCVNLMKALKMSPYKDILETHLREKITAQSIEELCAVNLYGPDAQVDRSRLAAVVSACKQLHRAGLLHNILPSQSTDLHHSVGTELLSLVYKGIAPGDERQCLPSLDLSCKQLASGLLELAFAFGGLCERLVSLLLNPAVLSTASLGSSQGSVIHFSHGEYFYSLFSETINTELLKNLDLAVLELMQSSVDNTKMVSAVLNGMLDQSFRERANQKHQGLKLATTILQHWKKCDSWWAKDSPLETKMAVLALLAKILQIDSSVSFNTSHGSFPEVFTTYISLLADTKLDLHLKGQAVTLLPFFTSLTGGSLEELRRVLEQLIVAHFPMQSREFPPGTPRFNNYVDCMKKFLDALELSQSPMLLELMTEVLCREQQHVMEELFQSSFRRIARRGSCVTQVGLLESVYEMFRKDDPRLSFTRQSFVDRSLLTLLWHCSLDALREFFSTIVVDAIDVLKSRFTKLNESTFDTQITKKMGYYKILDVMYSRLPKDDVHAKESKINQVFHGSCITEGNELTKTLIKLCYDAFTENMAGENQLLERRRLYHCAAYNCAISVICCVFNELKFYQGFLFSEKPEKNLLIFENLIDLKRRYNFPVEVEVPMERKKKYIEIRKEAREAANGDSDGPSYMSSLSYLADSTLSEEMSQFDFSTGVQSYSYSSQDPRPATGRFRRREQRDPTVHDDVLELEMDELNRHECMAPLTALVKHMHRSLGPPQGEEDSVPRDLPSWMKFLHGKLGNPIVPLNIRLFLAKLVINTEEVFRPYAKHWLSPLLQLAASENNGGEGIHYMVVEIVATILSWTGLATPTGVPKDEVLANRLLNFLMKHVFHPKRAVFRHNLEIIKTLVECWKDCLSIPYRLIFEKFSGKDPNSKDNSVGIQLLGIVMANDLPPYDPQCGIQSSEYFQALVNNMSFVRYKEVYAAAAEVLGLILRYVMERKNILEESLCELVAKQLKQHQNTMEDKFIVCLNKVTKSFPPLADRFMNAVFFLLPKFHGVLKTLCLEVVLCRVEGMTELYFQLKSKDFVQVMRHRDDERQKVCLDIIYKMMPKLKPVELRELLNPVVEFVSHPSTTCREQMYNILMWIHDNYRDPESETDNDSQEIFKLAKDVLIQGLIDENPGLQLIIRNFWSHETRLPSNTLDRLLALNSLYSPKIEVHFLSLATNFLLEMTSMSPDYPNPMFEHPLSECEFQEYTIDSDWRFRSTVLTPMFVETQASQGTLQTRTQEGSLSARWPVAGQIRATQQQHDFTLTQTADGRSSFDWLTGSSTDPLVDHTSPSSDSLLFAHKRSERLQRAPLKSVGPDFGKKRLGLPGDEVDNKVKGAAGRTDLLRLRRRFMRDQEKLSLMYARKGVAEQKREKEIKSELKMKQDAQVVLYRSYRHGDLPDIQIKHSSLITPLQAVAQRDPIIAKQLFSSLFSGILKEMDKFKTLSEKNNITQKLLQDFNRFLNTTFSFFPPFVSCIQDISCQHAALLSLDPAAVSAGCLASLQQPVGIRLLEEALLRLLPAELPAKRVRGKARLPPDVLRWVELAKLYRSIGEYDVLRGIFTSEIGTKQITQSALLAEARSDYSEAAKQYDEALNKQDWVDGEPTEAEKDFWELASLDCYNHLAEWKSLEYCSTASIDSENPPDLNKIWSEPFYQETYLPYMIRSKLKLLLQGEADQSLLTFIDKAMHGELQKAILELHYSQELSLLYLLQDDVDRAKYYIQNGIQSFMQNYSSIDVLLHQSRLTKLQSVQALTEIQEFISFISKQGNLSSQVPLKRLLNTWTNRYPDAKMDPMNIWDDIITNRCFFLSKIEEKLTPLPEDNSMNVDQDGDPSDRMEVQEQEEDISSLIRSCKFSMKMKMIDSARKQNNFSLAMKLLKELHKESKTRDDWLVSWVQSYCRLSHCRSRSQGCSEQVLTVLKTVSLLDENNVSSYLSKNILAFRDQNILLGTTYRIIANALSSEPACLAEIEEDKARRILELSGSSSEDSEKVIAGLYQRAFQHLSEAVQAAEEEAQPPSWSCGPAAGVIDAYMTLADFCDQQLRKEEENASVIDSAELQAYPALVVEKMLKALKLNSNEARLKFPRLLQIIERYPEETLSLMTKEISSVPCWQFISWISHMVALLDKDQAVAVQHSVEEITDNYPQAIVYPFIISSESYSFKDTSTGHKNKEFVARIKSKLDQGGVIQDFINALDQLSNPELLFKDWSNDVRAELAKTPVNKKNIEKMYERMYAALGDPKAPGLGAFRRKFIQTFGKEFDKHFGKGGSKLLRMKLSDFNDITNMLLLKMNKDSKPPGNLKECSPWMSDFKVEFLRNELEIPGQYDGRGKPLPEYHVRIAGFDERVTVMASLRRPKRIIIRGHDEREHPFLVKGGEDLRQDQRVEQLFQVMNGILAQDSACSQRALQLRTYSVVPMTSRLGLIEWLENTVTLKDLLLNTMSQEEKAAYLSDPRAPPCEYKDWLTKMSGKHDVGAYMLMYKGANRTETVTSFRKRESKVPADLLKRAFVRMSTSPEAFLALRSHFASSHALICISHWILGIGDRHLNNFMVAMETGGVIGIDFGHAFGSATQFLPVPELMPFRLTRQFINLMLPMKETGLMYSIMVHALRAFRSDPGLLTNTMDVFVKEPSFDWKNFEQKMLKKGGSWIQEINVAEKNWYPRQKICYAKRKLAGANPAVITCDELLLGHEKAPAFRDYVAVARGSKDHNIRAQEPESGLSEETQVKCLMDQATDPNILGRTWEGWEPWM

B1: scFv 18-2 (scFv, V domains shown)
VH: QVKLQESGAELVKPGASVKLSCKAFDYTFTTYDINWIKQRPGQGLWIGWIYPGSGNNKYNEKFKGKATLTADKSSRAAYMHLSSLTSEDSAVYFCAGGPLNMTGFDYWGQGTTVTVSS
VL: DIELTQSPSSMYASLGERVTITCKASQDINSYLSWFQQKPGKSPKTLIYRANRLVDGVPSRFSGSGSGQDYSLTISSLEYEDMGIYYCLQYDELPLTFGAGTKLEIK
[1]
  decrease in p53 peptide phosphorylation activity: 50%
[2]
  Kd: 1.4 nM

Reference: US20050220796A1
